Results taken from the supplement of paper PMC11780869.

Tested on: Bacillus subtilis
Assay: cleaved RNA product abundance (RNA/gDNA barcode ratio) relative to median wild-type variant (ratio to wild type); higher = more accumulation of the downstream cleavage product
Procedure: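 MPRA in B. subtilis. Mutagenized RNase Y cleavage-site regions (9% mutation rate) were inserted into a barcoded reporter mRNA (truncated aprE or tetM). Cells were grown in LB at 37°C to OD600 0.3. The cleaved RNA isoform was gel-purified and its barcodes counted; the RNA:gDNA barcode ratio was normalised to the median wild-type variant, and the median over barcodes is reported per variant. The printed sequence is the variable window only; the reporter flanks are not printed.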

[1] = experiment (reporter, strain, medium): exp 4a: truncated aprE reporter, strain BJT201 with 2% xylose (RNase J1 expressed), cleavage site: cggR-gapA (positions -7 to +36 mutated)
[2] = experiment (reporter, strain, medium): exp 2b: truncated aprE reporter, strain BJT200, cleavage site: cggR-gapA (positions -7 to +36 mutated)
[3] = experiment (reporter, strain, medium): exp 8a: truncated aprE reporter, strain BJT201 with 2% xylose (RNase J1 expressed), cleavage site: glnRA (positions -5 to +31 mutated)
[4] = experiment (reporter, strain, medium): exp 6: tetM reporter, strain 168, cleavage site: cggR-gapA (positions -7 to +36 mutated)

Sequence | cleaved RNA product abundance [1] | cleaved RNA product abundance [2] | further results
ACAGACGAAGGAGCCGCAAAGAAGGTATTAAGGGATGAATAATCCCTTAATATAAATATCTCTCACTTATTTAAA | 0.326 | – | –
ACAGACGAAGGAGCCGCAAAGAAGTTATTAAAGGATAAATAATCTCTCAATATAAATATCTCTCACTTATTTAAA | 0.112 | – | –
ACAGACGAAGGAGCCGCAAAGAAGTTATTATGGGATGAATAATCCCTCCATATAAATATCTCTCACTTATTTAAA | – | 0.361 | –
ACAGACGAAGGAGCCGCAAAGAAGTTATTAAAGGATGAATAATCCCTCAATATAAAAATCTCTCACTTATTTAAA | 0.244 | 0.147 | –
ACAGACGAAGGAGCCGCAAAGAAGTTATTAAGGGATGAATAATCTCACAATATAAATATCTCTCACTTATTTAAA | 0.262 | 0.18 | –
ACAGACGAAGGAGCCGCAAAGAAGTTATTAAGTGATGAATTATCCCTCAATATAAATATCTCTCACTTATTTAAA | 0.249 | 0.104 | –
ACAGACGAAGGAGCCGCTAAGAAGTTATTAAGGGATGAATAATCTCTCAATATAAATATCTCTCACTTATTTAAA | 1.12 | – | –
ACAGACGAAGGAGCCGCAAAGAAGTTATTAAGGGATGTGTAATCCCTCAATATAAATATCTCTCACTTATTTAAA | 0.526 | – | –
ACAGACGAAGGAGCCGCAAAGAAGCTATTAAGGGATGAATAATCCCTCAGTATAAATATCTCTCACTTATTTAAA | – | 0.135 | –
CGACATGTCCCGCTTCTTTCATTAATCAGTTAGTAACTGTTTTGCTATATACATTTACCTTTTAAGAGGAGGAAT | – | – | cleaved RNA product abundance [3]: 0.421
ACAGACGAAGGAGCCGCAAAGAAGTTATTAAGAGATAAATAATTCCTCAATATAAATATCTCTCACTTATTTAAA | – | 0.102 | –
ACAGACGAAGGAGCCGCAAAGAAGTTATTAAGGGATGAATAATCCCTCAATATATATTTCTCTCACTTATTTAAA | 0.561 | – | –
ACAGACGAAGGAGCCGCAAAGAAGTTATTAAGGGATGAATAATCACTCAATATAAATTTCTCTCACTTATTTAAA | 0.112 | – | –
CGACATGTCCCGCTTCTTTCATTAATTCGTTAGCAACTGTTTTGCCATATACATTTACCTTTTAAGAGGAGGAAT | – | – | cleaved RNA product abundance [3]: 0.237
CGACATGTCCCGCTTCTTTCATTAATCCGTTAGCAACTGTTTTGCTCTATAAATTTACCTTTTAAGAGGAGGAAT | – | – | cleaved RNA product abundance [3]: 0.384
CGACATGTCCCGCTTCTTTCATTAATCCTTTAAAAAGTGTTTTGCTATATACATTTACCTTTTAAGAGGAGGAAT | – | – | cleaved RNA product abundance [3]: 0.182
ACAGACGAAGGAGCCGCAAAGACGTTATTAAGCGATGAATAATCCCTCAATATAAATATCTCTCACTTATTTAAA | 0.155 | – | –
ACAGACGAAGGAGCCGCAAAGAAGTTATTAAGGTATGAATAATCCCTTAATATAAATATCTCTCACTTATTTAAA | 0.461 | 0.709 | cleaved RNA product abundance [4]: 0.236
ACAGACGAAGGAGCCGCAAAGAAGTTATTAAGGGATGAATAAAACCTCAATATAAATATCTCTCACTTATTTAAA | 0.125 | 0.119 | –
ACAGACGAAGGAGCCGCAAAAAAGTTATTAAGGAATAAATAATCCCTCAATATAAATATCTCTCACTTATTTAAA | – | 0.0862 | –

Sequence | cleaved RNA product abundance [1] | cleaved RNA product abundance [2] | further results
ACAGACGAAGGAGCCGCAAAGAAGTTATTAAGGGAATAATAATCCCTCAATATAAATATCTCTCACTTATTTAAA | 0.934 | 0.811 | –
CGACATGTCCCGCTTCTTTCATTAATCCGTAAGCAACAGTTTTGCTATATACATTTACCTTTTAAGAGGAGGAAT | – | – | cleaved RNA product abundance [3]: 0.348
ACAGACGAAGGAGCCGCAACGAAGTTATTAAGGGACGAATAATCCCTCAATATAAATATCTCTCACTTATTTAAA | 0.585 | – | –
ACAGACGAAGGAGCCGCAAAGAACTTATTAAGGGATGAATAATCCCACAATATAAATATCTCTCACTTATTTAAA | 0.292 | 0.207 | –
ACAGACGAAGGAGCCGCAAAGAAGTAATTAATGGATGAATAATCCCTCAATATAAATATCTCTCACTTATTTAAA | 0.121 | 0.105 | cleaved RNA product abundance [4]: 0.0999
ACAGACGAAGGAGCCGCAAAGAAGCTATTAAGGGAAGAATAATCCCTCAATATAAATATCTCTCACTTATTTAAA | 0.4 | 0.265 | –
CGACATGTCCCGCTTCTTTCATTAATCTGTTAGCAACTGTTTTGCTATATACAATTACCTTTTAAGAGGAGGAAT | – | – | cleaved RNA product abundance [3]: 0.89
ACAGACGAAGGAGCCGCAAAGAAGTTATTAAGGGATGAGTAATCCCTTAATATAAATATCTCTCACTTATTTAAA | 0.601 | – | –
ACAGACGAAGGAGCCGCAAAGAAGTTATTAAGGTATGAATAATCCCCCAATATAAATATCTCTCACTTATTTAAA | 0.141 | – | –
CGACATGTCCCGCTTCTTTCATTAATCCGTTAGCAACTGATTTGCTATATACATTTACTTTTTAAGAGGAGGAAT | – | – | cleaved RNA product abundance [3]: 1.06
CGACATGTCCCGCTTCTTTCATTATTCCGTTAGCAACTGTTTTGCTATATACATTAACCTTTTAAGAGGAGGAAT | – | – | cleaved RNA product abundance [3]: 1.44
ACAGACGAAGGAGCCGCAAAGAAGATATTAAGGGATGAATAATCCCACAATATAAATATCTCTCACTTATTTAAA | 0.311 | – | –
ACAGACGAAGGAGCCGCAAAGAACCTATTAAGGGATGAATAATCCCTCAATATAAATATCTCTCACTTATTTAAA | 0.309 | 0.18 | –
CGACATGTCCCGCTTCTTTCATTATTCCGTTAGCAACTGTTTTGCTATATTCATTTACCTTTTAAGAGGAGGAAT | – | – | cleaved RNA product abundance [3]: 0.669
ACAGACGAAGGAGCCGCAAAGAAGTTATTAAGGGATGATTAATCCCGCAATATAAATATCTCTCACTTATTTAAA | 0.0868 | – | –
CGACATGTCCCGCTTCTTTCATTAATCCTTTAGCAACTGTCTTGCTATATACATTTACCTTTTAAGAGGAGGAAT | – | – | cleaved RNA product abundance [3]: 0.661
ACAGACGAAGGAGCCGCAAAGAAGTTATTAAGGGATGAATACTCCTTCAATATAAATATCTCTCACTTATTTAAA | 0.253 | – | –
CGACATGTCCCGCTTCTTTCATTAATCCATTAGCAACTGTTTTGATATATACATTTACCTTTTAAGAGGAGGAAT | – | – | cleaved RNA product abundance [3]: 0.35
ACAGACGAAGGAGCCGCAAAGAAGTTATTAAGGGATGAATAATCCCTTAATATACATATCTCTCACTTATTTAAA | 0.232 | – | –
ACAGACGAAGGAGCCGCAAAGAAGTTATTAAGGGTTGAAAAATCCCTCAATATAAATATCTCTCACTTATTTAAA | 0.565 | – | –

Sequence | cleaved RNA product abundance [1] | cleaved RNA product abundance [2] | further results
ACAGACGAAGGAGCCGCAAAGAAGTTATTAAGGCATGAATAATCCCTCAATATAAATATCTCTCACTATTTAAAG | 0.146 | – | –
ACAGACGAAGGAGCCGCAAAGAAGTTATTATGGGATGAATAATCCCTCAACATAAATATCTCTCACTTATTTAAA | 0.361 | – | –
ACAGACGAAGGAGCCGCAAAGAAGTTGTTCAGGGATGAATAATCCCTCAATATAAATATCTCTCACTTATTTAAA | 0.446 | – | –
ACAGACGAAGGAGCCGCAAAGAAGTTATTAAGTGATGAATATTCCCTCAATATAAATATCTCTCACTTATTTAAA | 0.102 | – | –
CGACATGTCCCGCTTCTTTCATTATTCCATTAGCAACTGTTTTGCTATATACATTTACCTTTTAAGAGGAGGAAT | – | – | cleaved RNA product abundance [3]: 1.21
ACAGACGAAGGAGCCGCAATGAAGTTATTAAGTGATGAATAATCCGTCAATATAAATATCTCTCACTTATTTAAA | 0.0953 | – | –
CGACATGTCCCGCTTCTTTCATTAATCCGTTAGCAACAGTTTTTCTATATACATTTACCTTTTAAGAGGAGGAAT | – | – | cleaved RNA product abundance [3]: 0.345
CGACATGTCCCGCTTCTTTCATTAATCTGTTAGCAACCGTTTTGCTATATACATTTACCTTTTAAGAGGAGGAAT | – | – | cleaved RNA product abundance [3]: 0.436
ACAGACGAAGGAGCCGCATAGAAGTTATTAAGTGATGAATAATCCCTCAATATAAATATCTCTCACTTATTTAAA | 0.0818 | 0.121 | –
ACAGACGAAGGAGCCGCAAAGAAGTTATTAAGGGATGATTAATGCCTCAATATAAATATCTCTCACTTATTTAAA | – | 0.117 | –
ACAGACGAAGGAGCCGCAAAGAAGTTATTCAGGGTTGAATAATCCCTCAATATAAATATCTCTCACTTATTTAAA | 0.412 | – | –
ACAGACGAAGGAGCCGCAAAGAAGTTATTAAGGGACGAATAATACCTCAATATAAATATCTCTCACTTATTTAAA | 0.12 | – | –
ACAGACGAAGGAGCCGCATAGAAGTTATTAAGGGATGACTAATCCCTCAATATAAATATCTCTCACTTATTTAAA | 0.679 | – | –
ACAGACGAAGGAGCCGCAAAAAAGTTATTAAGGGATGAATAATCCTTCAATATAAATATCTCTCACTTATTTAAA | 0.678 | 0.395 | –
CGACATGTCCCGCTTCTTTCATTAATCCGTTAGCAACTGTTTTGCTATCTACATTTACCTTTTAAGAGGAGGAAT | – | – | cleaved RNA product abundance [3]: 0.098
ACAGACGAAGGAGCCGCAAAGAAGTTATTAAGGGATGAATAATACCTCAATATACATATCTCTCACTTATTTAAA | 0.123 | – | –
CGACATGTCCCGCTTCTTTCATTAATCCGTTAGCAACTGCTTTGCTATATACATTAACCTTTTAAGAGGAGGAAT | – | – | cleaved RNA product abundance [3]: 0.575
ACAGACGAAGGAGCCGCAAAGAAGTTATTAAGGGATAAAAAATCCATCAATATAAATATCTCTCACTTATTTAAA | – | 0.123 | –
CGACATGTCCCGCTTCTTTCATTAATCCTCTAGCAACTGTTTTGCTATATACATTTACCTTTTAAGAGGAGGAAT | – | – | cleaved RNA product abundance [3]: 0.492
